Experiment [1] deals with Recombinant human Gal3 (rhGal3) (TrueBinding, #QC200361) (human) (UniProt P17931). Description: cell-based or functional assay.
Experiment [2] addresses cynomolgus Gal3 (cynomolgus). Description: method not stated (FIG. 20).

Chain of Recombinant human Gal3 (rhGal3) (TrueBinding, #QC200361) (human) (P17931 2-250 limits assumed): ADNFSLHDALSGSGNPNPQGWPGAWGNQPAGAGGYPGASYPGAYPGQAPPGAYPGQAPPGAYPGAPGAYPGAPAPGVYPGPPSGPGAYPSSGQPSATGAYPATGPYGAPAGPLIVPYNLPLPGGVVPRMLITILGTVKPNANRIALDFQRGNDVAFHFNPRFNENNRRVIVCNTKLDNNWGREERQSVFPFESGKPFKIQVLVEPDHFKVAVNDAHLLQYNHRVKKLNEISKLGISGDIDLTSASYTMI
Chain of cynomolgus Gal3 (cynomolgus) (chain, as listed by the source): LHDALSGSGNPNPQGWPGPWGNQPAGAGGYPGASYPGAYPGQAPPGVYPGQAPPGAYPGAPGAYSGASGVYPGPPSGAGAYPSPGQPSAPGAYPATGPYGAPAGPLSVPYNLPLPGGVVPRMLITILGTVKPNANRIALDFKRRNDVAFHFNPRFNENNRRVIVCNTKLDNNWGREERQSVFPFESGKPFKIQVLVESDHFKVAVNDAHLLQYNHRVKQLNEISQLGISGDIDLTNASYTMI

B1: 14D11.2D2 (antibody, from another filing, V domains shown)
VH: QVQLKESGPGLVAPSQSLSITCTISGFSLSSYGVHWVRQPPGKGLEWLVVIWSDGSTTYNSTLKSRLSISKDNSKSQVFLKMNSLQTDDTAMYYCARHISNYGTMDYWGQGTSVTVS
VL: DIQMTQTTSSLSASLGDRVTISCRASQDIRNYLNWYQQKPDGSIKLLIYYTSRLHSGVPSRFSGSGSGTDYSLTIRNLEQEDIATYFCQHFNTLPPTFGGGTKLEIK
Take B1: the % inhibition of CD62L shedding in experiment [1] came out at 86.2%.

B2: 847.14H4 (antibody, from a related filing, V domains shown)
VH: QIQLVQSGPELTKPGETVKISCKASGYTFTDYGMNWVRQAPGETLKWMGWINTYTGEPTYADDFKGRFAFSLESSASTAYLQINNLKNEDVATYFCARYPMDYWGQGTSVTVSS
VL: QAVVTQESALTTSPGETVTLTCRSSTGAVTTSNYANWVQEKPDHLFTGLIGGTNNRAPGVPARFSGSLIGDKAALTITGAQTEDEAIYFCALWYSNHLVFGGGTKLTVL
On to B2, for which, in experiment [1], the % inhibition of CD62L shedding came to 34.4%, the % inhibition of IL-6 secretion is -71.4% and the % inhibition of TNFα secretion is -181%.

B3: TB006 (antibody, human IgG4 S228P, kappa, V domains shown)
VH: QVQLVQSGAEVKKPGASVKVSCKASGYSFTNYYMHWVRQAPGQRLEWMGWIYPGSGNTNYNEKFQGRVTITADTSASTAYMELSSLRSEDTAVYYCSTAPGGFDVWGQGTTVTVSS
VL: DIVMTQTPLSLSVTPGQPASISCKSSKSLLHSDGITYLYWYLQKPGQSPQLLIYRMSNLASGVPDRFSGSGSGTDFTLKISRVEAEDVGVYYCAQMLEFPLTFGQGTKLEIKR
For the molecule B3, the Kd (in general, a measure of binding affinity in units of concentration) in experiment [2] was 5.1 nM.

B4: F846C.1H5 (antibody, V domains shown)
VH: EVQLLESGGGLVKPGGSLKLSCAASGFTFSSYAMSWVRQTPEKRLEWVASISSGGDTYYPDSVKGRFTISRDNARNILYLQMSSLRSEDTAMYYCASYGNSLFDYWGQGTTLTVSS
VL: DVVMTQTPLSLPVSLGDQASISCRSSQSLVHNSGNTYLHWYLQRPGQSPNLLIYKVSNRFSGVPDRFSGSGSGTDFTLKISRVAAEDLGVYFCSQSTHVPPTFGGGTKLEIKR
B4: in experiment [1], the % inhibition of CD62L shedding was determined as 100%, the % inhibition of IL-6 secretion was -49.7% and the % inhibition of TNFα secretion was -162%.

The values above are taken from patent US20250243282A1.
